Results: PMC3783652
Values belong to the binder of their own block, whether it stands above or below them.

Target: CXCL12_(2), constitutively dimeric CXCL12 variant (locked dimer) (UniProt P48061)
Assay: NMR titration

B1: 18SGDYDSM24, unsulfated Tyr21 peptide of CXCR4 (peptide)
peptide: Ac-SGDYDSM-NH2
Kd: 831 µM

B2: 4ISIsYTSD10, sTyr7 sulfopeptide of CXCR4 (peptide)
peptide: ISIYTSD
HELM: PEPTIDE1{[ac].I.S.I.[O=C([C@H](Cc1ccc(OS(=O)(=O)O)cc1)N[*:1])[*:2]].T.S.D.[am]}$$$$V2.0
SMILES: CC[C@H](C)[C@H](NC(C)=O)C(=O)N[C@@H](CO)C(=O)N[C@H](C(=O)N[C@@H](Cc1ccc(OS(=O)(=O)O)cc1)C(=O)N[C@H](C(=O)N[C@@H](CO)C(=O)N[C@@H](CC(=O)O)C(N)=O)[C@@H](C)O)[C@@H](C)CC
Kd: 386 µM

B3: 4ISIYTSD10, unsulfated Tyr7 peptide of CXCR4 (peptide)
peptide: Ac-ISIYTSD-NH2
Kd: 418 µM

B5: 9SDNYTEE15, unsulfated Tyr12 peptide of CXCR4 (peptide)
peptide: Ac-SDNYTEE-NH2
Kd: 332 µM

Now those with a lower Kd, led by results:

Kd: 266 µM
B4: 9SDNsYTEE15, sTyr12 sulfopeptide of CXCR4 (peptide)
peptide: SDNYTEE
HELM: PEPTIDE1{[ac].S.D.N.[O=C([C@H](Cc1ccc(OS(=O)(=O)O)cc1)N[*:1])[*:2]].T.E.E.[am]}$$$$V2.0
SMILES: CC(=O)N[C@@H](CO)C(=O)N[C@@H](CC(=O)O)C(=O)N[C@@H](CC(N)=O)C(=O)N[C@@H](Cc1ccc(OS(=O)(=O)O)cc1)C(=O)N[C@H](C(=O)N[C@@H](CCC(=O)O)C(=O)N[C@@H](CCC(=O)O)C(N)=O)[C@@H](C)O

Kd: 211 µM
B6: 18SGDsYDSM24, sTyr21 sulfopeptide of CXCR4 (peptide)
peptide: SGDYDSM
HELM: PEPTIDE1{[ac].S.G.D.[O=C([C@H](Cc1ccc(OS(=O)(=O)O)cc1)N[*:1])[*:2]].D.S.M.[am]}$$$$V2.0
SMILES: CSCC[C@H](NC(=O)[C@H](CO)NC(=O)[C@H](CC(=O)O)NC(=O)[C@H](Cc1ccc(OS(=O)(=O)O)cc1)NC(=O)[C@H](CC(=O)O)NC(=O)CNC(=O)[C@H](CO)NC(C)=O)C(N)=O
